# Several values for one entry are separate records, joined by “and”; a condition that tells them apart may be missing. Identical values can stand only once.
# B1: 2B5-8.0: recombinant anti-PGE2 antibody from solved 2B5 sequence; VH SEQ ID NO 42, VL SEQ ID NO 43 (antibody, V domains shown)
# VH: QVQLQQSGPELVRPGSSVKISCKASGYTFTKYWLGWVKQRPGHGLEWIGDIYPGYDYTHYNEKFKDKATLTVDTSSSTAYMQLSSLTSEDSAIYYCARSDGSSTYWGQGTLVTVSA
# VL: DVLMTQTPLSLPVSLGDQASISCTSSQNIVHSNGNTYLEWYLQRPGQSPKLLIYKVSNRFSGVPDRFSGSGSGTVFTLKISRVEAEDLGVYYCFQVSHVPYTFGGGTKLEIKR
# Columns and labels:
# ^3H-PGE2 ELISA (binding) = experiment: ^3H-PGE2 ELISA (binding)
# Method: Alternatively, prostaglandin binding was determined using a ^3H-PGE2 ELISA. Plates were coated at 50 μL/well with 5 μg/ml of goat anti-human IgG (Fc) (Thermo Scientific # 31170, Hudson, N.H.) or goat anti-mouse IgG (Fc) (Thermo Scientific # 31125, Hudson, N.H.) in PBS and incubated overnight at 4° C. The following day, plates were flicked and blotted dry. Plates were blocked with 200 μL/well of Superblock (Thermo Scientific # 37515, Hudson, N.H.) for 1 hour at room temperature. Plates were flicked and blotted dry. Monoclonal antibodies were diluted to 0.04 μg/ml in phosphate buffer solution with Tween 20 (PBST) (Abbott Bioresearch Center, Worcester, Mass.) and 10% Superblock and 50 μL of each antibody was added to each well of the pre-blocked ELISA plate at 2 ng/well and incubated for 1 hour at room temperature. Wells were washed 3 times with PBS+0.1% Tween-20. A serial 3-fold titration of ^3H-PGE2 (Perkin Elmer # NET-428, Waltham, Mass.) was prepared in PBST/10% Superblock. Fifty microliters of the ^3H-PGE2 solution was added to each well of the plate and incubated for 1 hour at room temperature. […] Plates were read using a TopCount reader (Perkin Elmer, Waltham, Mass.) with a 5 minute count delay. An EC50 number was determined using GraphPad Prism 5 (GraphPad Software, La Jolla, Calif.).
# [1] = Biotin-PGE2 ELISA (PGE2-biotinamide binding to captured IgG)
# Method: Enzyme linked immunosorbent assays to screen for antibodies that bind prostaglandin E2 were performed according to at least one of the two following methods.
# ELISA plates (Costar 3369, Corning, N.Y.) were coated with 50 μl of anti-host Fc IgG (Sigma, St. Louis, Mo.) at 2 μg/ml in PBS (Invitrogen Carlsbad, Calif.). Following an overnight incubation at 4° C., washed with PBS and the plate was blocked with 200 μl Superblock (Pierce #37535, Rockford, Ill.). The IgG containing samples were diluted to 1 μg/ml in Assay Buffer (10% Superblock in PBS containing 0.05% Surfactamps (Pierce #37535, Rockford, Ill.) and 50 μl/well added to each well and incubated for 1 hour at room temperature. Plates were washed four times with Tween-Tris Buffered Solution (TTBS). […] The titration curve samples were added to each IgG sample at 50 μl/well and incubated for 1 hour at room temperature. The plates were washed as previously described and 50 μl of 1:5000 dilution of streptavidin polyhrp40 (Fitzgerald Industries, Concord, Mass.) in Assay Buffer was added to each well and incubated for 45 minutes at room temperature. A final wash step was performed and the plates were developed using a single step TMB system (Sigma #T8665, St. Louis, Mo.) and 100 μl/well 2N H2SO4. Plates were read at 450 nm on a Molecular Devices Spectramax plate reader (Sunnyvale, Calif.). EC50 was determined using GraphPad Prism 5 (GraphPad Software, La Jolla, Calif.).
# [2] = Pharmacokinetics of 2B5.8.0 in Sprague-Dawley rats; format: in vivo; conditions: rat, IV 4 mg/kg
# Method: Pharmacokinetic studies with mouse mAb 2B5.8.0 were carried out in Sprague Dawley rats and Balb/C mice. Male and female rats and mice were dosed intravenously or intraperitoneally (mice only) with a single dose of 4 mg/kg 2B5.8.0 and serum samples were analyzed using antigen capture based chemiluminescent MSD (Meso Scale Discovery) method (Meso Scale Discovery, Gaithersburg, Md.). Pharmacokinetic parameters were calculated by non-compartmental analysis using WinNonlin.
# The following MSD assay was used to measure antibody concentration in rat and mouse serum. MSD streptavidin plates (Meso Scale Discovery, Gaithersburg, Md.) were washed with phosphate buffered saline containing 0.05% Tween-20 (Sigma, St. Louis, Mo.). Plates were blocked with 250 μL/well blocking solution (MSD Block, Meso Scale Discovery, diluted to 3% final concentration in PBS) for 1 hour, covered, with shaking (600 rpm) at room temperature. After washing, 70 μL of biotinylated PGE2 (Prostoglandin E2-biotinamide, Cayman Chemical, Ann Arbor, Mich., cat# 10006987, lot# 190831-191028, 0.01 ug/mL in assay buffer) was added to each well. The plates were covered and incubated with shaking (600 rpm) for 1 hour at room temperature
# Prior to analysis, rat and mouse serum samples were thawed on ice, mixed gently, and centrifuged at 14,000 rpm for 3 minutes at 4° C. in an eppendorf centrifuge. Standard curve and control samples were prepared in rat and mouse serum. A Tecan Evo automated liquid handling station was used to dilute standard curve, high, medium, and low controls, and serum samples in assay buffer, keeping 1% final serum concentration constant. MSD plates were washed again and study samples, standard curve samples and blanks, as well as high, medium, and low controls were added (70 μL/well). The plates were covered, and incubated for 1 hour with shaking (600 rpm) at room temperature.
# After incubation, the MSD plates were washed, and 70 μL of sulfo-tagged goat anti-mouse IgG (Meso Scale Discovery; diluted to 1 ug/mL in assay buffer) was added to each well. The MSD plates were covered, and incubated with shaking (600 rpm) for 1 hour at room temperature, then the plates were washed and developed with 2× Read Buffer (Meso Scale Discovery). Chemilumeniscence was measured within ten minutes on the MSD Sector Imager 6000.
# Standard curves were analyzed using four-parameter logistic fit and sample concentrations were calculated by XLfit4 software version 2.2.1 Build 16, ([…].). Pharmacokinetic parameters were calculated for each animal using Winonlin software version 5.0.1 (Pharsight Corporation, Mountain View, Calif.) by noncompartmental analysis.
# Surgically altered jugular vein cannulated, JVC) and regular male and female Sprague-Dawley Rats (approximately seven weeks old, weighing 240-390 grams) were purchased from Charles River Laboratories (Wilmington, Mass.). The animals were housed in rooms maintained at constant temperature and humidity under 12 hours light/dark cycle, fed with normal rodent chow and were allowed food and water ad libitum. Hydration and clinical conditions of the animals were monitored daily.
# Male and female Balb/c mice (weighing approximately 0.025 kg) were purchased from Charles River Laboratories (Wilmington, Mass.). The animals were allowed food and water ad libitum. Blood samples were collected (0.2 mL from the rats via the tail vein and by cardiac puncture from the mice) at various timepoints (5 mice at each timepoint) allowed to clot for 30 minutes at room temperature, centrifuged for 3 minutes at 13,200 rpm, the serum transferred to eppendorf tubes and stored frozen at −80° C.
molecule,measurement,setting,value
B1,EC50,^3H-PGE2 ELISA (binding),0.253 nM
same,EC50,[1],1.03 nM
same,ability to bind PGE2 in ELISA,[1],potently bound to PGE2
same,AUC0-∞,[2]; female,12000 ± 4600 µg·h/mL
same,CL,[2]; female,8.88 ± 3.12 mL/day/kg
same,MRT,[2]; female,259 ± 84 h
same,Vss,[2]; female,0.088 ± 0.0062 L/kg
same,Vz,[2]; female,0.101 ± 0.0131 L/kg
same,T½,"[2]; female, 4 mg/kg",214 h and 204 ± 52.8 h
same,AUC0-∞,[2]; male,9900 ± 700 µg·h/mL
same,CL,[2]; male,9.84 ± 0.72 mL/day/kg
same,MRT,[2]; male,302 ± 38.4 h
same,T½,[2]; male,218 h
same,Vss,[2]; male,0.122 ± 0.0185 L/kg
same,Vz,[2]; male,0.127 ± 0.0189 L/kg

# From patent publication US8624002B2, “Prostaglandin E2 binding proteins and uses thereof” (AbbVie, Inc., priority 2008, dated 2014)
